# Assay results taken from patent US11110182B2, “Multifunctional RNA nanoparticles and methods for treating cancer and therapeutic resistant cancer” (University of Cincinnati, priority 2016, dated 2021).
# Assay: Hydrodynamic size by dynamic light scattering (DLS)
# Assay type: physicochemical
# Procedure: Cell culture. Human breast cancer luciferase-overexpressing BT474 and MDA-MB-231 cells were maintained in DMEM medium (Hyclone, Thermo Scientific) supplemented with 10% fetal bovine serum (FBS, Sigma) and 1% penicillin/streptomycin (Corning) at 37° C. in a humidified atmosphere with 5% CO2.^53 • Generation of pRNA nanoparticles. The two strands of pRNA were synthesized with the DNA templates, which were amplified with overlapping primers (Sigma) by PCR methods, using a T7 promoter-controlled in vitro RNA transcription system as previously described^33 (Table 1). […] The hydrodynamic diameter and Tm value of pRNA nanoparticles were determined using dynamic light scattering and TGGE assay, respectively, as previously described.^54 The AFM imaging of the pRNA nanoparticles was performed at the University of Nebraska Medical Center imaging facility as previously reported.^55 Briefly, the pRNA nanoparticles (5 μL) were deposited on APS modified mica ^56 for a total of 2 min of incubation time. […] After washing three times with PBS, the cellular uptake of pRNAs was determined using a BD LSRFortessa™ flow cytometer. • Real-time PCR. […] The expression of MED 1, TFF1, c-Myc, cyclinD1 and MMP-9 was analyzed using GAPDH as the internal reference. • Western blot analyses. […]
molecule,measurement,value
"pRNA-HER2apt-siMED1: 3-WJ pRNA nanoparticle bearing a HER2-targeting RNA aptamer and two different MED1 siRNAs; strands p1 SEQ ID NO: 3, p2 SEQ ID NO: 4 (nucleic acid, 2'-F modification; third strand may lack entry; pRNA-HER2apt-siMED1, p1; pRNA-HER2apt-siMED1, p2) chain 1: GGACAGUGAAAGUGAGUCAAAGGAUCAAUCAUGGCCAAAGAUGUUACUUUGAGAGCCUU chain 2: GGCUCUCAAAGUAACAUCUAAGGCCAUGUGUAUGUGGGGGGAGGACGAUGCGGUCUGCUGUGCUUGAUAUGCCCCAGACGACUCGCCCCCCACAUACUUUGUUGAUCCAAUGACUCACUUUCACUGUCCUU",hydrodynamic size,8.68±1.87 nm
